Laboratory results taken from paper PMC9210283, “DNA cytosine methylation at the lexA promoter of Escherichia coli is stationary phase specific”.

B1: lexAop 5mC/5mC (mC16 F / mC3 R) (dsDNA)
DNA 1: AATGCCTGCGGAAACTGTATATACACCCAGGGTCAATTCTGGCT
DNA 2: AGCCAGAATTGACCCTGGGTGTATATACAGTTTCCGCAGGCATT
modifications: 5-methyl-dC at position 28 of strand 1 and position 15 of strand 2
B2: lexAop C/C (nonmethylated) (dsDNA)
DNA 1: B1 DNA 1
DNA 2: B1 DNA 2

Legend:
LexA [1] = target: T1, LexA (Escherichia coli, UniProt P0A7C2 1-202); assay: EMSA; concentration as LexA dimer; Hill slope 1.1; 10 mM MgCl2; EMSA: 70 mM Tris-HCl pH 7.5, 2 mM PIPES, 180 mM NaCl, 10 mM MgCl2, 1 ug/ml salmon sperm DNA, 100 ug/ml BSA, 5% glycerol, 0.006% bromophenol blue, 0.1 nM probe; conditions: protein: recombinant; chain copies: 2; label: 32P (5' on strand 1); blunt
LexA [2] = target: T1, LexA; assay: EMSA; concentration as LexA dimer; Hill slope 1.2; 10 mM MgCl2; EMSA: 70 mM Tris-HCl pH 7.5, 2 mM PIPES, 180 mM NaCl, 10 mM MgCl2, 1 ug/ml salmon sperm DNA, 100 ug/ml BSA, 5% glycerol, 0.006% bromophenol blue, 0.1 nM probe; conditions: protein: recombinant; chain copies: 2; label: 32P (5' on strand 1); blunt

T1 sequence (P0A7C2 whole entry): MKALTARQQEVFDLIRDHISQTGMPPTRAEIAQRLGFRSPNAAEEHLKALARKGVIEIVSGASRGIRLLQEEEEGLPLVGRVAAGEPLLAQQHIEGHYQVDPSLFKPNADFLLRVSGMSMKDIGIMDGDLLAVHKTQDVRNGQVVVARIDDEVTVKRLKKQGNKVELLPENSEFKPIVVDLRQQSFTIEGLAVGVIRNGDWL

Row | Binder | Kd (LexA [1]) | Kd (LexA [2])
1 | B1 | 14 nM | 
2 | B2 |  | 15 nM
